Columns and labels:
WT BLMcore [1] = target: T1, WT BLMcore (Homo sapiens, UniProt P54132 636-1298); test: EMSA; 5 mM MgCl2; smear; estimated apparent KD; 50 mM Tris-HCl pH 7.5, 50 mM KCl, 5 mM MgCl2, 1 mM DTT, 0.1 mg/mL BSA, 40 nM DNA, 30 min room temperature; 5% gel in TBE + 100 mM KCl at 4 C; details: protein: recombinant, (HisTrap purified)
WT BLMcore [2] = target: T1, WT BLMcore; test: EMSA; 5 mM MgCl2; distinct shift; estimated apparent KD; 50 mM Tris-HCl pH 7.5, 50 mM KCl, 5 mM MgCl2, 1 mM DTT, 0.1 mg/mL BSA, 40 nM DNA, 30 min room temperature; 5% gel in TBE + 100 mM KCl at 4 C; details: protein: recombinant; (HisTrap purified); label: 3'-FAM on oAV320 (strand 2); 18 bp duplex, 3' overhang 39 nt on strand 1

T1 sequence (P54132 636-1298): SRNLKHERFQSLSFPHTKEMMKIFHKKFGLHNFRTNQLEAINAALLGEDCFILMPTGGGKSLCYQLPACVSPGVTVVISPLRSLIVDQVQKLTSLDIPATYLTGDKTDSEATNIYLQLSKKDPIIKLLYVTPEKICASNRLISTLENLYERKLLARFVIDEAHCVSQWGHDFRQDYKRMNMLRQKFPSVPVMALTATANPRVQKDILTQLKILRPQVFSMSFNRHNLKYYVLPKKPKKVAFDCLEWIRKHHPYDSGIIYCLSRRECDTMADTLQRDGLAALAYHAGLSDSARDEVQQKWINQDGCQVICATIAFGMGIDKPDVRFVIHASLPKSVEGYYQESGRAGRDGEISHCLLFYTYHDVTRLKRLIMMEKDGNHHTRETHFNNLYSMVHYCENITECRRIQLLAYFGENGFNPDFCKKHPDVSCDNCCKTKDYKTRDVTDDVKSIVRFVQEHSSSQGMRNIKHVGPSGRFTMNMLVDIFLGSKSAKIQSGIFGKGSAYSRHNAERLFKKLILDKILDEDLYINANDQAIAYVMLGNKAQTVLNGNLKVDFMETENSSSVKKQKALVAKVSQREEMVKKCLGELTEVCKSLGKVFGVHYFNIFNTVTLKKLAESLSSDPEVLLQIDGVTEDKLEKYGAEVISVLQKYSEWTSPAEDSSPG

TTTTTTTTTTTTTTTTTTTTTTTTTTTTTT (ssDNA) [FAM-dT30 (ssDNA)]
Kd (WT BLMcore [1]; single strand): ~125 nM

GGGTTAGGGTTAGGGTTAGGGTTTTTTTTTT (structured_DNA) [G4 DNA with 3' ssDNA overhang (FAM-oRC96)]
Kd (WT BLMcore [1]; label: 3'-FAM, intramolecular G4 (folded in 100 mM KCl) with 3' T-rich ssDNA tail): ~125 nM

B1: partial dsDNA with 3' ssDNA overhang (oRC32/FAM-oAV320) (dsDNA)
DNA 1: TGGCGACGGCAGCGAGGCTTAGGGTTAGCGTTAGCGTTAGGGTTTTTTTTTTTTTTT
DNA 2: GCCTCGCTGCCGTCGCCA
Kd (WT BLMcore [2]): ~79 nM
